In patent US20250381255A1 (ANOKION, published 2025):
Residue numbers refer to the chain shown, from its start.

Columns and labels:
[1] = molecular target: T1, human asialoglycoprotein receptor 1 (ASGR1) extracellular domain (human, UniProt P07306 62-291); assay: apparent KD from biochemical characterisation; method not named for this value (Example 1 describes Octet BLI: IgG on AHC sensors, 100 nM ASGR1, 1:1 model); mAb-60819
T1 construct: The methods speak of 'human ASGR1-His'; The results paragraph says only 'ASGR1'; also called human ASGR1-His; ASGR1 ECD
T1 sequence: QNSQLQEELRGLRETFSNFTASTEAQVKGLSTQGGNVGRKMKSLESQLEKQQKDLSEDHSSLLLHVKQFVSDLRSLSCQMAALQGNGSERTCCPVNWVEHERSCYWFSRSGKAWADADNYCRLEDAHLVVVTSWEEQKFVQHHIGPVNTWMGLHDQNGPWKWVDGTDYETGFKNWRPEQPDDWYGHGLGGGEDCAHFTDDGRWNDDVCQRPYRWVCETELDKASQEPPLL

[2] = molecular target: T1, human asialoglycoprotein receptor 1 …; assay: apparent KD from biochemical characterisation; method not named for this value (Example 1 describes Octet BLI: IgG on AHC sensors, 100 nM ASGR1, 1:1 model); mAb-60869
[3] = molecular target: T1, human asialoglycoprotein receptor 1 …; assay: apparent KD from biochemical characterisation; method not named for this value (Example 1 describes Octet BLI: IgG on AHC sensors, 100 nM ASGR1, 1:1 model); mAb-60856
[4] = molecular target: T1, human asialoglycoprotein receptor 1 …; assay: apparent KD from biochemical characterisation; method not named for this value (Example 1 describes Octet BLI: IgG on AHC sensors, 100 nM ASGR1, 1:1 model)

B1: mAb-60819 (antibody, V domains shown)
VH: QVQLVQSGAEVKKPGSSVKVSCKASGGTFSNYAISWVRQAPGQGLEWMGGIIPIFGTANYAQKFQGRVTITADESTSTAYMELSSLRSEDTAVYYCAREARVAGTRPRGFDIWGQGTMVTVSS
VL: EIVLTQSPATLSLSPGERATLSCRASQSVSSYLAWYQQKPGQAPRLLIYDASNRATGIPARFSGSGSGTDFTLTISSLEPEDFAVYYCQQLNNFPPTFGGGTKVEIK
Kd [1]: 9.29 nM

B2: mAb-60869 (antibody, V domains shown)
VH: EVQLLESGGGLVQPGGSLRLSCAASGFTFSNYAMSWVRQAPGKGLEWVSAISGSGGSTYHADSVKGRFTISRDNSKNTLYLQMNSLRAEDTAVYYCARDAPYRGGHYFDLWGRGTLVTVSS
VL: B1 VL with N92A, N93S, F94W
notes: also called anti-ASGR1 antibody mAb-60869
Kd [2]: 3.22 nM

B3: mAb-60856 (antibody, V domains shown)
VH: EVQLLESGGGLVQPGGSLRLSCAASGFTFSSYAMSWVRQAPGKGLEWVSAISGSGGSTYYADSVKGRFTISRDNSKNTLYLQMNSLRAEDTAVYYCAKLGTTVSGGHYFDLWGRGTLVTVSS
VL: B1 VL with N53K, L91D, N92S, F94H, P96L
notes: also called anti-ASGR1 antibody mAb-60856
Kd [3]: 9.29 nM

B4: mAb-60881 (antibody, V domains shown)
VH: QVQLQESGPGLVKPSETLSLTCAVSGYSISSGYYWGWIRQPPGKGLEWIGSIYHSGSTYYNPSLKSRVTISVDTSKNQFSLKLSSVTAADTAVYYCAREAGYPERGYGMDVWGQGTTVTVSS
VL: EIVMTQSPATLSVSPGERATLSCRASQSVSSNLAWYQQKPGQAPRLLIYGASTRATGIPARFSGSGSGTEFTLTISSLQSEDFAVYYCQQYFHHPFTFGGGTKVEIK
notes: Made as IgG
Kd [4]: ~3 nM
